According to the supplement of paper PMC7125110:
± gives the standard error. For some assays here: Fewer inactive variants are shown than the library holds.

B1: glmS ribozyme (parent)
chain: AUAAAAGCGCCAGAACUACAGAAAUGUAGUUGACGAGGAGGAGGUUUAUCGAAUUUUCGGCGGAUGCCUCCAAA

Key:
Conditions in all cases: with glucosamine-6-phosphate
glucosamine-6-phosphate [1] = variants of: B1; test: kcat; higher = faster cleavage; RNA array
How it was run: (§1)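 Barcoded ribozyme variants, transcribed in situ by E. coli RNA polymerase on sequenced MiSeq chips, were followed via a hybridised Cy3 probe at 37 °C. Glucosamine-6-phosphate ranged from 40 μM to 10 mM in HEPES/KCl/Mg(OAc)2 buffer. kobs came from decay fits to per-tile medians, and kcat and KM from weighted Michaelis–Menten fits.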

glucosamine-6-phosphate [2] = variants of: B1; test: self-cleavage kobs at 2500 uM GlcN6P; higher = faster cleavage; RNA array
How it was run: as §1

glucosamine-6-phosphate [3] = variants of: B1; test: self-cleavage kobs at 10000 uM GlcN6P; higher = faster cleavage; RNA array
How it was run: as §1

glucosamine-6-phosphate [4] = variants of: B1; test: self-cleavage kobs at 40 uM GlcN6P; higher = faster cleavage; RNA array
How it was run: as §1

glucosamine-6-phosphate [5] = variants of: B1; test: self-cleavage kobs at 640 uM GlcN6P; higher = faster cleavage; RNA array
How it was run: as §1

glucosamine-6-phosphate [6] = variants of: B1; test: KM; higher = weaker cofactor use; RNA array
How it was run: as §1

glucosamine-6-phosphate [7] = variants of: B1; test: self-cleavage kobs at 160 uM GlcN6P; higher = faster cleavage; RNA array
How it was run: as §1

Row | Variant | kcat (glucosamine-6-phosphate [1]) | self-cleavage kobs at 2500 uM GlcN6P (glucosamine-6-phosphate [2]) | self-cleavage kobs at 10000 uM GlcN6P (glucosamine-6-phosphate [3]) | self-cleavage kobs at 40 uM GlcN6P (glucosamine-6-phosphate [4]) | self-cleavage kobs at 640 uM GlcN6P (glucosamine-6-phosphate [5]) | KM (glucosamine-6-phosphate [6]) | self-cleavage kobs at 160 uM GlcN6P (glucosamine-6-phosphate [7])
1 | U31A C58G | 0.000589 ± 0.00022 s⁻¹ | 3.87e-05 ± 1.3e-05 s⁻¹ | 0.00013 ± 1.9e-05 s⁻¹ |  |  |  | 
2 | G29A C68A | 1.61e-05 ± 4.9e-06 s⁻¹ |  |  | < 1e-05 s⁻¹ |  |  | 
3 | A14C G44U | 4.6e-05 ± 8.4e-06 s⁻¹ | 3.7e-05 ± 1.4e-05 s⁻¹ | 3.91e-05 ± 9.8e-06 s⁻¹ | < 1e-05 s⁻¹ |  |  | 
4 | U57G C71A | 3.11e-05 ± 9.7e-06 s⁻¹ | 3.2e-05 ± 1.5e-05 s⁻¹ |  |  | 4.65e-05 ± 1.5e-05 s⁻¹ |  | 
5 | C16A G32A | 0.0012 ± 0.00043 s⁻¹ |  | 0.000787 ± 0.00012 s⁻¹ |  | 0.000229 ± 0.00011 s⁻¹ |  | 
6 | U55A A64U | 0.000202 ± 3.2e-05 s⁻¹ | 7.6e-05 ± 1.1e-05 s⁻¹ | 0.000138 ± 1.5e-05 s⁻¹ | < 1e-05 s⁻¹ |  | 4540 ± 1600 µM | 
7 | U30G A33C | 4.15e-05 ± 6e-07 s⁻¹ |  | 3.4e-05 ± 8.1e-06 s⁻¹ |  |  | 2230 ± 140 µM | 
8 | A14U G38C | < 1e-05 s⁻¹ | < 1e-05 s⁻¹ | < 1e-05 s⁻¹ | < 1e-05 s⁻¹ | < 1e-05 s⁻¹ |  | 
9 | A39U C50G C58U | 1.28e-05 ± 4e-06 s⁻¹ |  |  |  |  |  | 
10 | C34A G37U C68U | < 1e-05 s⁻¹ |  |  | < 1e-05 s⁻¹ |  |  | 
11 | C70A C71U | 9.41e-05 ± 4.3e-06 s⁻¹ | 8.22e-05 ± 1e-05 s⁻¹ |  |  | 5.75e-05 ± 1e-05 s⁻¹ | 384 ± 58 µM | 2.83e-05 ± 1e-05 s⁻¹
12 | U31C G32U | 0.000799 ± 8e-05 s⁻¹ | 0.000281 ± 2.9e-05 s⁻¹ | 0.000594 ± 5.8e-05 s⁻¹ |  | 0.000112 ± 9.6e-06 s⁻¹ | 4030 ± 600 µM | 3.53e-05 ± 8.1e-06 s⁻¹
13 | C16A G63C | < 1e-05 s⁻¹ |  |  |  |  |  | < 1e-05 s⁻¹
14 | A12U A42C | 2.16e-05 ± 2.9e-06 s⁻¹ | 1.75e-05 ± 7.1e-06 s⁻¹ | 1.89e-05 ± 8.5e-06 s⁻¹ | < 1e-05 s⁻¹ |  |  | 
15 | C10A C61G | < 1e-05 s⁻¹ |  |  |  |  |  | 
16 | A12U A36U C68A | 1.17e-05 ± 3.8e-06 s⁻¹ |  |  |  |  |  | 
17 | A39C U45A | 0.0045 ± 0.001 s⁻¹ | 0.00392 ± 0.001 s⁻¹ | 0.00397 ± 0.00058 s⁻¹ | 0.000226 ± 5.6e-05 s⁻¹ | 0.00118 ± 0.0002 s⁻¹ | 1430 ± 550 µM | 0.000456 ± 9.8e-05 s⁻¹
18 | G13C C16A | 0.000101 ± 1.7e-06 s⁻¹ | 7.81e-05 ± 1.4e-05 s⁻¹ | 9.42e-05 ± 1.4e-05 s⁻¹ |  | 4.82e-05 ± 1.7e-05 s⁻¹ | 712 ± 55 µM | 

Row | Variant | kcat (glucosamine-6-phosphate [1]) | self-cleavage kobs at 2500 uM GlcN6P (glucosamine-6-phosphate [2]) | self-cleavage kobs at 10000 uM GlcN6P (glucosamine-6-phosphate [3]) | self-cleavage kobs at 40 uM GlcN6P (glucosamine-6-phosphate [4]) | self-cleavage kobs at 640 uM GlcN6P (glucosamine-6-phosphate [5]) | KM (glucosamine-6-phosphate [6]) | self-cleavage kobs at 160 uM GlcN6P (glucosamine-6-phosphate [7])
19 | A48C A53C | 9.8e-05 ± 1.5e-05 s⁻¹ | 3.99e-05 ± 1.2e-05 s⁻¹ | 6.89e-05 ± 1.7e-05 s⁻¹ |  |  | 4010 ± 1400 µM | 
20 | A12U | 0.0933 ± 0.014 s⁻¹ | 0.049 ± 0.0042 s⁻¹ | 0.0963 ± 0.0052 s⁻¹ | 0.00275 ± 4.9e-05 s⁻¹ | 0.0283 ± 0.0012 s⁻¹ | 1340 ± 230 µM | 0.00899 ± 0.00054 s⁻¹
21 | A39U G51A | < 1e-05 s⁻¹ |  | < 1e-05 s⁻¹ | < 1e-05 s⁻¹ |  |  | < 1e-05 s⁻¹
22 | G40C C70A | 0.000174 ± 1.6e-05 s⁻¹ | 0.00016 ± 3.8e-05 s⁻¹ | 0.000154 ± 2.9e-05 s⁻¹ |  | 0.000105 ± 1.9e-05 s⁻¹ | 516 ± 140 µM | 
23 | U49A U55A | 3.61e-05 ± 1.5e-06 s⁻¹ |  | 2.26e-05 ± 9.3e-06 s⁻¹ |  |  | 5970 ± 610 µM | 
24 | A39U C71G | 0.00162 ± 0.00048 s⁻¹ | 0.00066 ± 9.6e-05 s⁻¹ | 0.00126 ± 0.00011 s⁻¹ | 4.48e-05 ± 8.3e-06 s⁻¹ | 0.00022 ± 2.8e-05 s⁻¹ | 3300 ± 1600 µM | 0.000107 ± 2e-05 s⁻¹
25 | C16A A53C | 0.000269 ± 1.8e-05 s⁻¹ | 0.000164 ± 2.3e-05 s⁻¹ | 0.000226 ± 2.5e-05 s⁻¹ |  | 6.66e-05 ± 1.2e-05 s⁻¹ | 1770 ± 270 µM | 3.05e-05 ± 1.2e-05 s⁻¹
26 | C61U C70U | 3.98e-05 ± 5.3e-06 s⁻¹ | 3.31e-05 ± 1e-05 s⁻¹ | 3.47e-05 ± 6e-06 s⁻¹ |  |  |  | 
27 | U31C U45A | 0.0175 ± 0.0045 s⁻¹ | 0.00783 ± 0.0016 s⁻¹ | 0.0108 ± 0.004 s⁻¹ | 0.000212 ± 6e-05 s⁻¹ | 0.00258 ± 0.00062 s⁻¹ | 3890 ± 1200 µM | 0.000613 ± 0.00012 s⁻¹
28 | C58A C70U | 0.000164 ± 2.2e-05 s⁻¹ | 0.000143 ± 1.3e-05 s⁻¹ | 0.000145 ± 1.7e-05 s⁻¹ |  | 6.79e-05 ± 8.4e-06 s⁻¹ | 718 ± 270 µM | 3.94e-05 ± 9.4e-06 s⁻¹
29 | U47G U54A | 0.00987 ± 0.0039 s⁻¹ | 0.00522 ± 0.0019 s⁻¹ | 0.00946 ± 0.0015 s⁻¹ | 0.000306 ± 4.7e-05 s⁻¹ | 0.00157 ± 0.00052 s⁻¹ |  | 
30 | A72C | 0.00605 ± 0.0029 s⁻¹ | 0.00362 ± 0.00077 s⁻¹ | 0.0121 ± 0.0021 s⁻¹ | 0.000372 ± 7.3e-05 s⁻¹ | 0.00257 ± 0.00043 s⁻¹ |  | 
31 | A6U A64G | 0.000266 ± 4.3e-05 s⁻¹ | 0.000128 ± 1.6e-05 s⁻¹ | 0.00025 ± 2.8e-05 s⁻¹ |  | 7.26e-05 ± 7.4e-06 s⁻¹ | 1910 ± 590 µM | 
32 | A12C C16A | 0.00127 ± 0.00038 s⁻¹ | 0.000339 ± 5.1e-05 s⁻¹ | 0.000927 ± 9.9e-05 s⁻¹ |  | 0.000172 ± 2.7e-05 s⁻¹ | 4920 ± 2400 µM | 6.12e-05 ± 1.6e-05 s⁻¹
33 | U30G G60A | 1.25e-05 ± 1.8e-06 s⁻¹ |  |  | < 1e-05 s⁻¹ |  |  | < 1e-05 s⁻¹
34 | A12U G44U U47G | 1.54e-05 ± 2.4e-06 s⁻¹ |  |  |  |  |  | 
35 | A33U U54A C70A | 4.75e-05 ± 1.3e-05 s⁻¹ |  |  |  | 5.86e-05 ± 2e-05 s⁻¹ |  | 
36 | G29A G41U | 9.86e-05 ± 5e-06 s⁻¹ | 7.35e-05 ± 1.6e-05 s⁻¹ | 8.74e-05 ± 1.5e-05 s⁻¹ |  | 3.55e-05 ± 1.5e-05 s⁻¹ | 1050 ± 200 µM | 
